Measurements as given in patent publication US20210139589A1 (APEXIGEN, published 2021).

T1: human VISTA expressed on the cell surface (HEK293 cells transfected with human VISTA cDNA); native on human … (human, UniProt Q9H7M9 33-311)
T1 construct: whole, on cells; also called PD-1H
T1 sequence (looked up): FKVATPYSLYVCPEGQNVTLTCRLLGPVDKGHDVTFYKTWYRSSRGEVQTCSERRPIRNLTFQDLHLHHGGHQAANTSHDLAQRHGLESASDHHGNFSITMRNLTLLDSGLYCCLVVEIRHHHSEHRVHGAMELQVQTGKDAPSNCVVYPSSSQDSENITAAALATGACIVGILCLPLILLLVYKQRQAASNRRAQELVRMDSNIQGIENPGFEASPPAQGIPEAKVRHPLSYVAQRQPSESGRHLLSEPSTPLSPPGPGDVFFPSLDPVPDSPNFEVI


Columns and labels:
[1] = target: T1, human VISTA expressed on the cell …; assay: method not stated; table follows flow cytometry on HEK293 cells transfected with human VISTA
[2] = target: T1, human VISTA expressed on the cell …; assay: flow cytometry on HEK293 cells transfected with human VISTA, detection with anti-human Ig; EC50 table under the graph
Experimental: In order to examine the ability of the 7 humanized anti-VISTA antibodies to bind to cell surface expressed VISTA, HEK293 cells were transfected with human VISTA cDNA for 24 hours using Fugene 6 transfection reagent. Cells were harvested by trypsinization, re-suspended in FACS buffer and plated in 96-well plates. Cells were incubated with the concentration of anti-VISTA antibodies indicated in FIG. 5 for 30 minutes on ice. Antibodies were detected using anti-human Ig antibodies and binding was assessed on the MACSQuant flow cytometer (FIG. 5).

| Kd [1] [nM] | EC50 [2] [nM] | Binder |
| --- | --- | --- |
| 2.19 | 2.95 | humanized anti-VISTA antibody 14F1-HZD2 (antibody, human IgG1, kappa, V domains shown, kappa light chain) VH: EVQLLESGGGLVQPGGSLRLSCAASGFSFSSSYYMCWVRQAPGKGLEWVACFYAGFSGSTYYASWAKGRFTISRDNSKNTLYLQMNSLRAEDTAVYYCAKGASTYGYTGYDYAGDYFILWQPGTLVTVSS VL: DIQMTQSPSSVSASVGDRVTITCQASQNIYSNLAWYQQKPGKAPKLLIYAASNLASGVPSRFSGSGSGTDFTLTISSLQPEDFATYYCQSAYYSSSADSYNAFGGGTKVEIKR |
| 1.35 | 1.84 | humanized anti-VISTA antibody 41A11-HZD2 (antibody, human IgG1, kappa, V domains shown, kappa light chain) VH: EVQLLESGGGLVQPGGSLRLSCAASGFSFSSSYYMCWVRQAPGKGLEWVGCFYAGFSGGTYYASWAKGRFTISRDNSKNTLYLQMNSLRAEDTAVYYCAKGANTYGYTGYDYAGDYFTLWGQGTLVTVSS VL: DIQMTQSPSTLSASVGDRVTITCQASQNIGSNLAWYQQKPGKAPKLLIYAASNLESGVPSRFSGSGSGTEFTLTISSLQPDDFATYYCQSAYYSSVDSYNTFGGGTKVEIKR |
| 2.2 | 2.83 | humanized anti-VISTA antibody 14D8-HZD2 (antibody, human IgG1, kappa, V domains shown, kappa light chain) VH: EVQLVESGGGLVQPGGSLRLSCAASGFDLSSAYYMCWVRQAPGKGLEWVGCIATGSGSTYYASWAKGRFTISRDNSKNTLYLQMNSLRAEDTAVYYCARAPYYSYDGYDYALNLWGQGTLVTVSS VL: DIQMTQSPSSVSASVGDRVTITCQASEDIVTYLAWYQQKPGKAPKLLIYAASTLASGVPSRFSGSGSGTDFTLTISSLQPEDFATYYCQQTYNYADTDNAFGGGTKVEIKR |
| 0.281 | 0.463 | humanized anti-VISTA antibody 29G7-HZD2 (antibody, human IgG1, kappa, V domains shown, kappa light chain) VH: EVQLVESGGGLVQPGGSLRLSCAASGFSLSSYAMGWVRQAPGKGLEWVGIIIVSGNIYYASWAKGRFTISRDNSKNTLYLQMNSLRAEDTAVYYCARGDGYTYGLWGQGTLVTVSS VL: DIQMTQSPSTLSASVGDRVTITCQASQSVYSRYLAWYQQKPGKAPKLLIYSASTLASGVPSRFSGSGSGTEFTLTISSLQPDDFATYYCQGTFYIPDYIDGFGGGTKVEIKR |
| 0.295 | 0.477 | humanized anti-VISTA antibody 29G7-HZD4 (antibody, human IgG1, kappa, V domains shown, kappa light chain) VH: EVQLVESGGGLVQPGGSLRLSCAASGFSLSSYAMGWVRQAPGKGLEWVGIIIVSGNIYYASWAKGRFTISRDNSKNTLYLQMNSLRAEDTAVYYCARGDGYTYGLWGQGTLVTVSS VL: EIVMTQSPATLSLSPGERATLSCQASQSVYSRYLAWYQQKPGQAPRLLIYSASTLASGIPARFSGSGSGTDFTLTISSLQPEDFAVYYCQGTFYIPDYIDGFGGGTKVEIKR |
| 1.31 | 1.75 | humanized anti-VISTA antibody 2D12-HZD3 (antibody, human IgG1, kappa, V domains shown, kappa light chain) VH: EVQLVESGGGLVQPGGSLRLSCAASGIDLSSYAMGWVRQAPGKGLEWVGIISSSGSAFYASWAKGRFTISRDNSKNTLYLQMNSLRAEDTAVYYCARHYAGYTTPYYFNFWGQGTLVTVSS VL: AIQMTQSPSSLSASVGDRVTITCQASENIYSNLAWYQQKPGKAPKVLIYAASDLASGVPSRFSGSGSGTDFTLTISSLQPEDFATYYCQQGFSSSNVDNAFGGGTKVEIKR |
| 0.293 | 0.483 | humanized anti-VISTA antibody 3A5-HZD (antibody, human IgG1, kappa, V domains shown, kappa light chain) VH: EVQLVESGGGLVQPGGSLRLSCAASGFSLSSENWICWVRQAPGKGLEWVGCICGANGGSAYHANWVNGRFTISRDNSKNTLYLQMNSLRAEDTAVYYCARAAGVSNAYYFDLWGQGTLVTVSS VL: DIQMTQSPSSVSASVGDRVTITCQASQYIYINLAWYQQKPGKAPKLLIYDASDLASGVPSRFSGSGSGTDFTLTISSLQPEDFATYYCQCTYGGSTYGNAFGGGTKVEIKR |
